From article PMC2615627 come the findings set out here.

In series [1] the target is T1, hRPA (replication protein A heterotrimer RPA1+RPA2+RPA3) (human (Homo sapiens), UniProt P27694;P15927;P35244 1-616;1-270;1-121). The series is described as follows: EMSA. For orientation: A gel shift assay detects complexes by their altered migration in electrophoresis.
Series [2] deals with T1, hRPA (replication protein A …). The experiment in a line: EMSA. The source holds these as a separate data set.

T1 sequence (P27694 whole entry, chain 1 of 3): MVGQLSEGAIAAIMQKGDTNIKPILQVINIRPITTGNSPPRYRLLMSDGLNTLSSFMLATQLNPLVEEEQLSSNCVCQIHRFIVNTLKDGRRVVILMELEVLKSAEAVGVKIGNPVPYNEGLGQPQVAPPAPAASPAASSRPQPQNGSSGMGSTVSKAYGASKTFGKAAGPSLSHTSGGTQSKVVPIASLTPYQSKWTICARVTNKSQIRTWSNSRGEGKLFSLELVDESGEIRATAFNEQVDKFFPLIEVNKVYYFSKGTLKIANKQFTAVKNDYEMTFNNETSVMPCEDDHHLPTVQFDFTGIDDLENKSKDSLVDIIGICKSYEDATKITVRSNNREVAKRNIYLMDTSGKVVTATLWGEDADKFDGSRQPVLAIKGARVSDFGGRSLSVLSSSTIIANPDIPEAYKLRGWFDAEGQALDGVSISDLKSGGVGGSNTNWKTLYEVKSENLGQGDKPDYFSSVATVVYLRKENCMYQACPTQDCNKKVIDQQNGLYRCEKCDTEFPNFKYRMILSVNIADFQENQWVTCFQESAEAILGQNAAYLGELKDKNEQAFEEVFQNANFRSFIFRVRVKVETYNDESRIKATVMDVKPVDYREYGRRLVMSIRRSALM
T1 sequence (P15927 whole entry, chain 2 of 3): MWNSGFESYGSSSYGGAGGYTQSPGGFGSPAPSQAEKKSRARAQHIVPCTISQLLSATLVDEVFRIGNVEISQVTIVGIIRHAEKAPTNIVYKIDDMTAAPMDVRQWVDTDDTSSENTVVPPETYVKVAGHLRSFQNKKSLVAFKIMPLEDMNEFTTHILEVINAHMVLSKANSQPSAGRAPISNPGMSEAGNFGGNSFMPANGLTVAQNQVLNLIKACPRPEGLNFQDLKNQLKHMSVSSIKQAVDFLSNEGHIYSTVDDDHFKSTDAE
T1 sequence (P35244 whole entry, chain 3 of 3): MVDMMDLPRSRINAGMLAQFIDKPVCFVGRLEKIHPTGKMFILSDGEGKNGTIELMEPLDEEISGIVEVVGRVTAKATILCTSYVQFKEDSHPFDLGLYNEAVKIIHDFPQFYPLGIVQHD

Turning to TTTTTTTTTTTTTTTTTTTTTTTTTTTTTTT (ssDNA) [poly(dT)31], in series [1], the binding signal was ~10 fold higher affinity than Oligo 31.
Consider GATCTCGGCGACGCACACGCGTCCTAACTCG (ssDNA) [Oligo 31], for which the binding result in series [2] is listed as “binds”.
